Measurements published in article PMC2119541.
Values joined by “and” are separate entries in the source; they are usually repeats but may differ in a detail not shown here. Identical values can stand only once.

How the values were obtained:
Assay in all cases: radioligand binding
collagen type III = collagen type III (UniProt P02461)
[1] = target: Englebreth-Holm sarcoma laminin (UniProt P19137)
collagen type IX = collagen type IX (UniProt P20849)
collagen type IV = collagen type IV (UniProt P02462)
[2] = target: laminin and collagen type IV (isotonic conditions with Ca2+)
collagen type V = collagen type V (UniProt P20908)
Chain of UniProt P20908 (P20908 38-1605, chain 1 of 2): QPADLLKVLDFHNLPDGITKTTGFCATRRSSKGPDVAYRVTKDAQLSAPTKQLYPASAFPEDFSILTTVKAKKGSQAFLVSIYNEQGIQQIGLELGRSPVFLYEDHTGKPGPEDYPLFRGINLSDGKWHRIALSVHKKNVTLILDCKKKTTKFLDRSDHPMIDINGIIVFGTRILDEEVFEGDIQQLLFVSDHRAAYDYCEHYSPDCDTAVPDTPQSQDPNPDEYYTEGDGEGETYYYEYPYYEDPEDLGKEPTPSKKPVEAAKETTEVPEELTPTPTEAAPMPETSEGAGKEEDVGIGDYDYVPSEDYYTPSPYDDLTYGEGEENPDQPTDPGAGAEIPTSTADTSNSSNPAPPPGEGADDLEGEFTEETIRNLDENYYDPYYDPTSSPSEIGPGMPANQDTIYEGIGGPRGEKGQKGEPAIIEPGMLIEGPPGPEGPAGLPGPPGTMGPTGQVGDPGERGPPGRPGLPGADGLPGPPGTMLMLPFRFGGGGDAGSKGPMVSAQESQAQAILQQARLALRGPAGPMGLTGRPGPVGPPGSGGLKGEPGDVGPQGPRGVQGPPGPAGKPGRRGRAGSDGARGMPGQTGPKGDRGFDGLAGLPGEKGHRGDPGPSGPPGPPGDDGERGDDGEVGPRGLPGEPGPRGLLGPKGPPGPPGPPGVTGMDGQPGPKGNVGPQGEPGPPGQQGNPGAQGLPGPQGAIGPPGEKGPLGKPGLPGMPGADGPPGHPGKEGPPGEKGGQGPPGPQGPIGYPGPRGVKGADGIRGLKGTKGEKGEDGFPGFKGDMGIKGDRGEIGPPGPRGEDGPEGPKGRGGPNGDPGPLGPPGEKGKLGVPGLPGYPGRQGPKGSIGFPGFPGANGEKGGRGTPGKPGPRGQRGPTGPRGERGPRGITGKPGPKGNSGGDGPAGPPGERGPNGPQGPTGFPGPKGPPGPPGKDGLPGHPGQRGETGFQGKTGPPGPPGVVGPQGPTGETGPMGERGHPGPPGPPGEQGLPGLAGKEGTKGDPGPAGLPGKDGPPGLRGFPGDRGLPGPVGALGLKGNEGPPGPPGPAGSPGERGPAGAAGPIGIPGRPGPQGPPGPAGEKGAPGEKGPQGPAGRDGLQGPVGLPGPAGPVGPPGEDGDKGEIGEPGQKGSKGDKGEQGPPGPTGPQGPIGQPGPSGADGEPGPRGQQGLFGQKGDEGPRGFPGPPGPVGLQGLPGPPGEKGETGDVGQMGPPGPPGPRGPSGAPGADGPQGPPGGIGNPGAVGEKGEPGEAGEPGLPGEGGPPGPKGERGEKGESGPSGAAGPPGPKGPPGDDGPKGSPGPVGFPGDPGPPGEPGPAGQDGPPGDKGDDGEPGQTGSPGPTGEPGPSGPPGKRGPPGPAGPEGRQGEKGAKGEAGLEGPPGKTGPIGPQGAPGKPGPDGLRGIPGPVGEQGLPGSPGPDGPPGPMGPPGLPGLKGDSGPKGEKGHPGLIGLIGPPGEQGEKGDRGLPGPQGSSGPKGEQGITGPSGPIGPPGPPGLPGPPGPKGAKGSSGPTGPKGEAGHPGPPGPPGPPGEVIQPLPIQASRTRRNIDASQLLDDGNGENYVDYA
Chain of UniProt P20908 (P05997 27-1229, chain 2 of 2, further chain): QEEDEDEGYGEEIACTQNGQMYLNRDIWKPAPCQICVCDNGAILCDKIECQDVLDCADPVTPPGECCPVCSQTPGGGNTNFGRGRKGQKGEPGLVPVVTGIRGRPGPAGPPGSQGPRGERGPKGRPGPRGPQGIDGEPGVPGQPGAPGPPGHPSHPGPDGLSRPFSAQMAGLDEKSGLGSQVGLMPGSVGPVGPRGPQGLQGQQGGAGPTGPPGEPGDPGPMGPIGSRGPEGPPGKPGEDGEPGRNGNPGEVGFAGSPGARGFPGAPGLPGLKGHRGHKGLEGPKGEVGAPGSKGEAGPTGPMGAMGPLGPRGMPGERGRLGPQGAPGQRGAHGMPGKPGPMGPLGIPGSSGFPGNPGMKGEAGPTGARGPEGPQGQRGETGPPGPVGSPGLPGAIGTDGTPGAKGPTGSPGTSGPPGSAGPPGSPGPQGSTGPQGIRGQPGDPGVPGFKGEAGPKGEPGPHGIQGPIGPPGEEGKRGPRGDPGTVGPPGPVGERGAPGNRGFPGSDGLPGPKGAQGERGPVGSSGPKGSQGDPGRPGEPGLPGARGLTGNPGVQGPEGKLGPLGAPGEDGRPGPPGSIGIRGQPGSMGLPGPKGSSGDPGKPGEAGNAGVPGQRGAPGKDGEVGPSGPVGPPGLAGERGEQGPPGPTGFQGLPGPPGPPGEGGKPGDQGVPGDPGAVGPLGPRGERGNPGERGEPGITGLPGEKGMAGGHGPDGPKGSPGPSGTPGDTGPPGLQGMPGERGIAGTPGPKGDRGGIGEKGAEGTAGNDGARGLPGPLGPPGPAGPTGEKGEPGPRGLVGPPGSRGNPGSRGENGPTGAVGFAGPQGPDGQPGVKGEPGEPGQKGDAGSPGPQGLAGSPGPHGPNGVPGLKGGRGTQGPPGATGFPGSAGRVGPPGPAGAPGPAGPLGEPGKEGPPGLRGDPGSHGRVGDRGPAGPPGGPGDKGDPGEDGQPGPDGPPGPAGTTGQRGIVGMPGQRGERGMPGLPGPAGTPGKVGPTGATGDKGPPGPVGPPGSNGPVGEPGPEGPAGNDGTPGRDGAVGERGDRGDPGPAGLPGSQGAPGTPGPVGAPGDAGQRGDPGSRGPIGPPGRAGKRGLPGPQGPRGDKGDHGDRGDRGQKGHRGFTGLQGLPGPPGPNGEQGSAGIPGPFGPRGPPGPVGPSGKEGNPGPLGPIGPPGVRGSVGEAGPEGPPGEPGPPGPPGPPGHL

Chain of UniProt P02461 (P02461 24-1221): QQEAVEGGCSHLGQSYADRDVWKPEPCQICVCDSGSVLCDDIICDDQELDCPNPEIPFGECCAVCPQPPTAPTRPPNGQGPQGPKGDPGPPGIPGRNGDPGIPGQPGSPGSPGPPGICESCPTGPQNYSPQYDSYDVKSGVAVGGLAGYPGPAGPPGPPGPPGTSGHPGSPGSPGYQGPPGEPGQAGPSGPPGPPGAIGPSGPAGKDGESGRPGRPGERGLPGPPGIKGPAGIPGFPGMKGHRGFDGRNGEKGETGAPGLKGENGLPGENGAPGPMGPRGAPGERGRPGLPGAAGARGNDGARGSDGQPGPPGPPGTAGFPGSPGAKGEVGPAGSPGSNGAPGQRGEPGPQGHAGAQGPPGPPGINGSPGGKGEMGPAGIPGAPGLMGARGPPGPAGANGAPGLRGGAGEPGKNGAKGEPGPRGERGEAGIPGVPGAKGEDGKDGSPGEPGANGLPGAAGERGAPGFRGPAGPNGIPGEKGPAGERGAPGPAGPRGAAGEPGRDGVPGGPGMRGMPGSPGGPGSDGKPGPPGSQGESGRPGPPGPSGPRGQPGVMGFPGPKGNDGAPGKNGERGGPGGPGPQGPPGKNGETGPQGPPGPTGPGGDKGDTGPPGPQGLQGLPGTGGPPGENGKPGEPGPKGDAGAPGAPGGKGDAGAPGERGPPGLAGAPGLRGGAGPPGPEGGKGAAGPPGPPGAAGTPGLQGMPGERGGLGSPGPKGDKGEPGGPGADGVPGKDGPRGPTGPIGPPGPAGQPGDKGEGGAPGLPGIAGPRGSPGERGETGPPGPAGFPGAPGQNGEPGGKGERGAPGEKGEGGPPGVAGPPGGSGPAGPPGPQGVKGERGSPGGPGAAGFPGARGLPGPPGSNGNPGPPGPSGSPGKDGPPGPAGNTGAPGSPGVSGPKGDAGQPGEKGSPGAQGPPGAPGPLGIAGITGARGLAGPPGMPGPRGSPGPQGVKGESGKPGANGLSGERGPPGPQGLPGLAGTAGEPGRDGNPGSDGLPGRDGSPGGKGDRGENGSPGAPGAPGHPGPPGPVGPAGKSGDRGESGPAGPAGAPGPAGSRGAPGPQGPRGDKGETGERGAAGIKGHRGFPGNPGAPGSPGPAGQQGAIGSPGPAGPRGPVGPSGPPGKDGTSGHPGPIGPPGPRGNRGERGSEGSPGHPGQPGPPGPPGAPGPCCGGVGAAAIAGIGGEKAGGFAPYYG

- fold binding over binding to BSA (collagen type III): 10 fold
- percent of the added astrochondrin bound (collagen type III): < 40%
- percent of the total input bound (collagen type III): < 80%
- percent of the total input bound at 15 mM NaCl (collagen type III): 30%
- fold binding over binding to BSA [1]: 3.5 fold
- percent of the total input bound [1]: 15%
- fold binding over binding to BSA (collagen type IX): < 7 fold
- percent of the total input bound (collagen type IX): 30%
- fold binding over binding to BSA (collagen type IV): < 7 fold
- percent of the total input bound (collagen type IV): 30%
- fold binding over binding to BSA [2]: 5 fold and 7 fold
- fold binding over binding to BSA (collagen type V): 10 fold
- percent of the added astrochondrin bound (collagen type V): < 40%
- percent of the total input bound (collagen type V): < 80%
- percent of the total input bound at 15 mM NaCl (collagen type V): 30%
Substance: astrochondrin (natural protein)
